Results taken from a protein production outcome set (Wang et al. 2014).

Experiment: label from the status in PepcDB records

Sequence	protein production
MDRIKSWEYDDVYNKFAIKDLDKSSFKRGSHIPIKVRKVFECEDIKYGDKKKITLIYKGEAFPAEIEGEIKGRIRMNWPKLIPKMKEVFKNEINDFEDSKELSVRVPRLKFTKETAIKYDVEMKTKYSHDVLCELERLDIDVENKTIEEINEVGEVIERVVKARKNQNKFREALFKRDGKCKICGLAHKELLIASHIKPWSKSTPEEKLNPFNGFLLCPNHDSLFDKHLISFKDNGEIIISKRLSEKEQELLSINKDIMINIEEGNKKFLKEHRDVFCKIEKAFDLEKELAISNKEIYNVELEV	failed
MDLSGVKKKSLLGVKENNKKSSTRAPSPTKRKDRSDEKSKDRSKDKGATKESSEKDRGRDKTRKRRSASSGSSSTRSRSSSTSSSGSSTSTGSSSGSSSSSASSRSGSSSTSRSSSSSSSSGSPSPSRRRHDNRRRSRSKSKPPKRDEKERKRRTLSPKPTKVHIGRLTRNVTKDHIMEIFSTYGKIKMIDMPVERMHPHLSKGYAYVEFENPDEAEXALKHMDGGQLMARDHCYCCVGTLASATTSRFSPPRRMLPPPPCGVGHPHG	not failed
MTETYVLAESPEFYQDNVTDYTGQISSSDITNIQAAIDDVKASEQKVIFVVFLSSFDGVDPETWTQQALQANGGGNVLIYALAPEERQYGIQGGTQWTDAELDAANNAAFQALSQEDWAGSALEHHHHHH	not failed
MSNGGLSIDEKEGLIDKDEVMIRRMKNRERQRRYRARKRMREEEAGNDDNLSFETMGKQEEEEEEDEGLEFNGPSGYVENFVRRVYCDRNWKKEARRAHLIMNKAQDSSCESVKRKIRPHRRDWKAEARKKKT	failed
RPNVERDAQRRVNIRVTDEIVTALNERRIVMAFEPVVQAVSRAPAFHECLVRMKQDDGELLLAPDIVPVAEKLGLIRLVDHRVLELVVAELAAAPGVELSLNISPDTTMDADWWASIESLLGANPGVAERLIVEITETVAIQDLDDVRGFVNRLKNFGARIAIDDFGAGYTSFRNLRNLGVDIVKIDGAFVQNIARSADDRAFVQTLIDLARRLEIKTVAEWVQDEASAIMLRDWGCDYIQGRLIGLA	failed
MKATLAAPSSLTSLPYRTNSSFGSKSSLLFRSPSSSSSVSMTTTRGNVAVAAAATSTEALRKGIAEFYNETSGLWEEIWGDHMHHGFYDPDSSVQLSDSGHKEAQIRMIEESLRFAGVTDEEEEKKIKKVVDVGCGIGGSSRYLASKFGAECIGITLSPVQAKRANDLAAAQSLAHKASFQVADALDQPFEDGKFDLVWSMESGEHMPDKAKFVKELVRVAAPGGRIIIVTWCHRNLSAGEEALQPWEQNILDKICKTFYLPAWCSTDDYVNLLQSHSLQDIKCADWSENVAPFWPAVIRTALTWKGLVSLLRSGMKSIKGALTMPLMIEGYKKGVIKFGIITCQKPL	failed
MEKLTTLTGVAVPLRRSNVDTDQIIPAVFLKRVKKSGFDDALFYAWRRDPEFVLNKPEYKQGKILVAGPDFGIGSSREHAVWALHDYGFRVVISSRFADIFYGNTAKNGVLAAIMPQESIELLWKLLDEEPGREMTVSLEDRTVTCGDVTLPFEVNDYTRWRLMNGYDDIDLTLQHEDDIIAYEKMRAEKFPFKPKTLPVKREPEQPIESAREGEYPDWQGPLADRGII	failed
LAQEKNYDLPEGVMVYVIEGPFFFGAVETFQSALANTHTDPKVLIIRMRWVPFIDVTGLQAMEEIILNLQKRGVRVLLSEANPLVDAKLRKMGIVQLIGEQNYYKEFSQALDVCRINDSDRKSQPPFEVAKPLASVTQ	not failed
MPNELSRSLSPYLLMHANDPVEWRMWSKETLRIATEENRLIFLSIGYSSCHWCHVMHEESFVDPDVAEILNNNYIPVKVDREERPDLDSYFMKVSQVINGNGGWPLNIILLPDARPVFAMTYVPKEDRNGMTGLKTILIQLSQMYLKDPDQFKDQAKAVSDAMEERESV	not failed
MKNRETDSNVVTLYVTRHGKTILNTNHRAQGWADSPLVEKGVEVATNLGTGLKDIHFMNAYSSDSGRAIETANLVLKYSEQSKLKLEQRKKLRELNFGIFEGEKLDNMWDAVGKAAGVTSPEELLKFSIQEVIDLIRAADPTKQAEDWELFSTRIKAEIDKISEEAAKDGGGNVLVVVHGLLITTLIEMLDSSKTKLGVENASVTKIVYQDGIYTVESVGDMSYVAKGKESVEI	not failed
MKKRHLLIAGLACMTILGACNNDDAGSSGQAVVEVDGHEISDAEFVDMLKERYGEAILQELVQRHLISQAADSVEIPQEEIDEELETFKSQIGVETDDEMLDALSNQFGITVENKEEFVNEYILPPLVLEKLAVEGVEITDEEKQAYFDENRDSLIEVEASHILVEDEETAEEVLDRLEAGDDFAELASEYSVDPSAEANNGDLGFFGKGDMVPEFEEAAFNMEIDEVSEPVESTYGYHIILVTDRKDSYEELEEKIHDTLMRERSRTQEEVLRDLLAQADINVLDDQFEGLFDLPDAPPVEDTPEIDGEDASDEAEDQAEDADENAEEEDES	failed
MTTKRVKKMGKEEMKEMFDLVIYAFNQEPTAERQERFEKLLSHTQSYGFLIDEQLTSQVMATPFQVNFHGVRYPMAGIGYVASYPEYRGEGGISAIMKEMLADLAKQKVALSYLAPFSYPFYRQYGYEQTFEQAEYTIKTEDWPRVKRVPGTIKRVSWADGKEVIKDVYLENQRAHSGGVIRETWWLDYTLNRASKPNNQAIYYSSEGKAEGYVIYRIAAGTFEIVEWNYLTNTAFKALAGFIGSHSGSVQSFHWINGFAGKDLNDLMPTPAASVKILPYMMARIVELQTFLEKYPFQSGEKETYSLEIEDSYGPWNEGIWTITIDEQGKATVTKGAAEKEGTAALKADIQTWTQLFLGYRSAETLSFYERLQGDATIAQRLGQRLVKGMPILEDYF	not failed
MPGKLTATILTRNEAANIGDCIDSLAQLADEVIVLDSGSTDATRDIARARGANVIEDDGPWPGFGPQKNRALDRATGEWVLSIDADERVPPELAQEIRTAMARADADAYAIPRLSQFCGAWVHHSGWRPDHVIRLFRRGKARFSENLVHESLQVTGNVARLRTSLLHYSYTSMDQVHRKSAQYAEAGARDLTQRGKHIGALSPVLHGTWAFVRTLVLRRGFLDGGTGLAIARMNATVSYRKYRRARELASGANHRPLEHHHHHH	failed
MRSAAVLALLLCAGQVTALPVNSPMNKGDTEVMKCIVEVISDTLSKPSPMPVSQECFETLRGDERILSILRHQNLLKELQDLALQGAKERAHQQKKHSGFEDELSEVLENQSSQAELKEAVEEPSSKDVMEKREDSKEAEKSGEATDGARPQALPEPMQESKAEGNNQAPGEEEEEEEEATNTHPPASLPSQKYPGPQAEGDSEGLSQGLVDREKGLSAEPGWQAKREEEEEEEEEAEAGEEAVPEEEGPTVVLNPHPSLGYKEIRKGESRSEALAVDGAGKPGAEEAQDPEGKGEQEHSQQKEEEEEMAVVPQGLFRGGKSGELEQEEERLSKEWEDSKRWSKMDQLAKELTAEKRLEGQEEEEDNRDSSMKLSFRARAYGFRGPGPQLRRGWRPSSREDSLEAGLPLQVRGYPEEKKEEEGSANRRPEDQELESLSAIEAELEKVAHQLQALRRG	failed
MMPSSSTPNAFQYAWRNPWVRLVVFLGLFYLLYLFIGQITTVLVDFAVAFLIAYLANPLLGWLERGRVRRGLGVFFVLLLFLGLLALAGALVVTVGGQFVQLFQNLPAQIDNLNRILDGAVQWLSGRGIPGLADAQTRMTEALRDWIANIGNNIVPILQNALSSTGTLFNRLISIGGVIGQVLLILLLSVYLMLDYARVNASLLRAFPRPWQPKVLEFSDLIGTAVGGYVRGQLLIAAFIGIFVWLGLTIVGIPSAAAIGFLAGAFNIVPYLGPIIGATPALLLALTLPNAGFKMILVVVVFVLANQIEGNFLSPYILSKTTDLHPVTVLLAILVGVALMGFAGALLAVPLVALGKLMLEKYYYPSRVYSQGP	failed
MSSGKVIVYGGKGALGSAILEFFKKNGYTVLNIDLSANDQADSNILVDGNKNWTEQEQSILEQTASSLQGSQVDGVFCVAGGWAGGSASSKDFVKNADLMIKQSVWSSAIAAKLATTHLKPGGLLQLTGAAAAMGPTPSMIGYGMAKAAVHHLTSSLAAKDSGLPDNSAVLTIMPVTLDTPMNRKWMPNADHSSWTPLSFISEHLLKWTTETSSRPSSGALLKITTENGTSTITPQ	not failed
MFYGRYDYPTGKFLWGNLRYQRVSEYNLQTFLNMKNSKLREEQIMSAKRDYYEVLGVSRDADKNTIKKAYRKLAKKYHPDTNQGNAQAAERFKEATEAYNILSDPEKKKMYDQFGHAAFDGSGAAGGAYGGAYSRNGGGTYQYAGPDGTFHEYHFEGNGDMDDFLKNIFGGSFGGFGGATRSSSKGSRSGFSGSGFGRSGFGGTGFSGSGFGGSGFSGSGFGESGSYGNYSQGGADVTAEITVGFDEAAFGCEKVIHLTENNGKAVGKALKVKIPAGIDTGKSIRLRGKGNPGINGGKAGDLLLKVKVASKPGYERKGMDVYTTVRVPFTTAVLGGEAKVETLHGNVLCKINPGTQSGTKIRLRGKGIVSMKDKNQHGDQYVTVQIDVPGNLSEEAKRKLREFEVACKKGQQGVA	failed
MTMEALQFLLAAPPGAYDPVARTIEDEPRPSQPPTSALALDIRGLRKSFGDNDVLRGIDLHIPAGQFVTIVGRSGCGKSTLLRLIAGLETPTAGHIVFGEDKLPGDVRVMFQEPRLLPWARVLANVEVGLGTERNSPDARARADAALIEVGLDDKRGEWPAVLSGGQKQRVALARALVSRPRVLAFDEPLGALDALTRIAMQRLLEQVWQAQGFTAILVTHDVAEAVALADRVLVIEDGRIAKDLPIDLPRPRQRGSAELAALEGEILRDLLKGAEDTFEL	failed
MWPDRRLIDLFKTEFPIVLAPMAGVMDAELVIAAAQGGALGSLPCAMLSAEKAREQVGLIRQRVKAPVNMNFFCHTPVDLTPEAEARWKQRLAGYYREHGLDPAAPISAANRAPFDAAFCEVVEELKPDVVSFHFGLPEQELLKRVKAAGSLVISSATTVKEAVWLERHGADAVIAQGAEAGGHRGMFLTDKIAEQPGTFALVPQVADAVKVPVIAAGGIADGRGIAAAFALGASGVQIGSAYLRCPESKVSAAGRAALAEGRDDSTVITNVMTGRPARGVQNRLMREAGPISPDAPPFPHAATALGPLKAAAEKQGRVDFTNLWAGQAIALGRELPAAELTRDLAKSALARMKALAG	failed
MASLWFGLIASSALVIGAFVGVRFELPKRLLAILLSFAAGSLITALAFELFEDAYEQGGIVRAALGLLAGAIVFTALSALLDRWAQPGGKSTTKAADEIQGSPKLDTDAAASDKAATSASTRGAAGMALLAAVTLDGVPENLALGISLGEGSGGLALLAAIFVSNLPEALVGASSMKSQGRKAGPIMLLWSVCAVLLVAAVVLGAGPLSSAEPATISLPLAFAAGAVIASLADTLMPEAYEHGGPAVALSTAAGFVLSFTLSLA	failed
MRKLDICIKSGLHFRTHRQHPDDDSVKTLTLECVDPQMVPVPRHWGRLAHRLLERAMTQATRPLPPPDGMGPTYRKILWRLIPFLFVCNLFNYLDRVNVGFAKLQMLRDLGMSQTVYGLGAGIFFIGYLACGVPSNLILQRIGARRWVAIMMVSWGLLSTCLLFVRTPAGFYTLRLLTGAAEAGFFPGILLYLTRWFPRDRHGRVTTVFMSAIPISGVLGGPLSGWILGYFSAGQGGLAGWQWMFLLQGLPTVLLGNGVWFLLSDGVQEASWLNPQEKQALARVLADDEAGKPAGASTSLRAVLCNPAVWLLGTVYFCIQSGVYAINFWLPSIIQDSGVTDPVRIGLMSAIPYLAAAVFMVLMGRSADRRGERRWHLVIPLLMGAAGLCIAASVTDNLGLALFGMTLATMGAVSGLPLFWPLTNGFLTAAAAAGGLALINSTGQVAGFVSPYLVGWIKDTTHSTQLALYVLAGAMLLGAALVLRVPACAVNQ	failed
MDTNGVLYAANMTNALAKEIPESKWDIQLIPELGTLRKLFIHIVRVRDVYRDGLKTGSIKFPGRLASDEHRLLDELERSMEELVFEFKQTTFNSIKMGENYLSIMELLGTVIQHEGIHQGQYYVALKQSGINLPKQWVQDWHM	not failed
